From US20190194358A1 (ARIZONA BOARD OF REGENTS A BODY CORPORATE OF THE STATE OF …, published 2019)
Where two headings read alike, the source gives them in different places. Ends that are not written are not given here.

Columns and labels:
transferrin [1] = biological target: T1, transferrin (human, UniProt P02787 20-698); assay: SPR (Biacore A-100), biotinylated transferrin captured on Neutravidin, unpurified peptide injected for 60 s
T1 construct: also called TRF; pooled human transferrin (Sigma)

[2] = biological target: T2, Tumor Necrosis Factor-alpha (UniProt P01375 77-233); assay: SPR (Biacore T-100), TNF-α amine-coupled to a CM5 chip, synbody concentration series
T2 construct: Immobilised on pipette tips or SPR chips (amine coupling or biotin capture); also called TNF-α; TNF-alpha
Method: Candidate TNF-α binding synbodies were screened by surface plasmon resonance (SPR) on a Biacore T-100 SPR instrument to verify binding for TNF-α. A CM5 chip was activated using standard amine coupling chemistry and TNF-α was immobilized. Each synbody was prepared in HBS—N buffer with excess carboxymethyl dextran added to the running buffer to minimize non-specific binding to the chip surface.

transferrin [3] = biological target: T1, transferrin; assay: SPR (Biacore A-100), biotinylated transferrin captured on Neutravidin, unpurified peptide injected for 60 s; remark: listed apart in the source
[4] = biological target: T2, Tumor Necrosis Factor-alpha; assay: SPR (Biacore A100), TNF-α captured, equilibrium response over a concentration series
Method: (§1) Point-mutant libraries were prepared in 96-well stock plates From the stock plate, peptides were diluted to 50 μM concentration in Biacore HBS-EP buffer (GE Healthcare, Piscataway, N.J.) containing 1 mg/ml carboxymethyl-dextran (Sigma-Aldrich, St. Louis, Mo.) to reduce non-specific binding to the CM-5 SPR chip surface. TNF-αt was captured on a CM-5 chip surface at different capture levels on spots 1, 2, 4, and 5 across all four flow cells corresponding to a 40-200 RU range of predicted Rₘₐₓ binding responses. Spot 3 contained only immobilized neutravidin and served as a reference spot.
(§2) Purified point-mutant affinities were measured on the Biacore A100 using SPR equilibrium binding response across a series of peptide concentrations on an SPR chip with TNF-α captured as described above.

[5] = biological target: T2, Tumor Necrosis Factor-alpha; assay: SPR, kinetic fits of sensorgrams
[6] = biological target: T2, Tumor Necrosis Factor-alpha; assay: fluorescence anisotropy; fluorescence anisotropy
[7] = biological target: T2, Tumor Necrosis Factor-alpha; assay: SPR; reference TNF1 lead peptide
Method: as §1, §2

[8] = biological target: T2, Tumor Necrosis Factor-alpha; assay: SPR, kinetic fits of several sensorgrams; Kd from kinetic fits, not equilibrium responses
[9] = biological target: T2, Tumor Necrosis Factor-alpha; assay: SPR-derived binding energies
[10] = biological target: T2, Tumor Necrosis Factor-alpha; assay: SPR (Biacore A100), TNF-α captured, equilibrium response over a concentration series; remark: listed apart in the source
Method: as §1, §2

[11] = biological target: T2, Tumor Necrosis Factor-alpha; assay: SPR, kinetic fits of sensorgrams (printed 'kon' in a sentence on the off-rate)
[12] = biological target: T2, Tumor Necrosis Factor-alpha; assay: SPR equilibrium binding (Biacore A100), TNF-α captured on the chip
[13] = biological target: T2, Tumor Necrosis Factor-alpha; assay: SPR (Biacore A100), TNF-α captured, equilibrium response over a concentration series; the cell prints '93', read as 9.3 (decimal point lost)
Method: as §1, §2

[14] = biological target: T3, SC1 Transcription factor 19 (human, UniProt Q9Y242); assay: Invitrogen ProtoArray Human Protein Microarray v4.0; biotinylated synbody, fluorescently labelled streptavidin; fluorescence intensity
T3 construct: GST fusion on the array
T3 sequence (looked up): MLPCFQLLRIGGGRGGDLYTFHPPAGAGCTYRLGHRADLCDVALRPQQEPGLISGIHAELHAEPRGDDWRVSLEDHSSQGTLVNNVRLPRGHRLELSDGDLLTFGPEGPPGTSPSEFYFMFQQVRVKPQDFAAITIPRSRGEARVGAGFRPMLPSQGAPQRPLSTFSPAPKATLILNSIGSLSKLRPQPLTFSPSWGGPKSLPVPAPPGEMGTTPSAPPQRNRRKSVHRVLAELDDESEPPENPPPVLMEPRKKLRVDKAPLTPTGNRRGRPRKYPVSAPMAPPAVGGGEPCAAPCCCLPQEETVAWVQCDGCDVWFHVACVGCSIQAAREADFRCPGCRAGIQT
Method: (§3) The prescribed cover slip was placed over the array and adjusted to remove air bubbles. The array was incubated in a 50 ml conical tube, printed side up, for 1.5 hours at 4 C without shaking. The array was then removed from the conical tube inserted diagonally into the array chamber, kept on ice. 8 ml probing buffer was added to the chamber wall. The cover slip was removed and the array was incubated in probing buffer for 1 minute on ice. The probing buffer was decanted and drained. Two further washings were performed adding 8 ml probing buffer, incubating on ice for 1 minute, and decanting and draining. 5 nM fluorescently labeled streptavidin diluted in 6 ml probing buffer was incubated on the array for 30 minutes on ice in the dark, after which the solution was decanted and drained. Three wash steps were performed, each by adding 8 ml probing buffer, incubating for 1 minute on ice, decanting, and draining. The array was removed from the chamber, centrifuged at 800×g for 5 minutes at room temperature. The array was dried in the dark for 60 minutes at room temperature, after which it was scanned using a fluorescent microarray scanner and data was taken and analyzed.

GRP58 = biological target: T4, GRP58 (human, UniProt P30101 25-505, limits assumed); assay: as above
T4 construct: GST fusion adsorbed on a nitrocellulose slide
T4 sequence (looked up): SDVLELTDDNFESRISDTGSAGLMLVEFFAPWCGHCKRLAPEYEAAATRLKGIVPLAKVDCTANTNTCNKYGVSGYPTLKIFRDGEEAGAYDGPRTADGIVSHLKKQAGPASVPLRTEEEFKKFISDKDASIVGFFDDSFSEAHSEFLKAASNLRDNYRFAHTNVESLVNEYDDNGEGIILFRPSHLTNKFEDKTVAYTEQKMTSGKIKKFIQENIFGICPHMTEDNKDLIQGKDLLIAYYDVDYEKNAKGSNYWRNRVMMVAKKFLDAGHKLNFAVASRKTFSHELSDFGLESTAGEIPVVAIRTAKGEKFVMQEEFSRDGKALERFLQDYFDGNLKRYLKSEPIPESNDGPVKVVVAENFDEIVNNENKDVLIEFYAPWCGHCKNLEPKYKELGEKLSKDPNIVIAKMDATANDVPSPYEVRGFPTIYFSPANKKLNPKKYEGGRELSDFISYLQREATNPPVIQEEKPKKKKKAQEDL
Method: as §3

PSMA3 = biological target: T5, PSMA3 (human, UniProt P25788); assay: as above
T5 construct: GST fusion on the array
Method: as §3

transferrin [15] = biological target: T1, transferrin; assay: SPR (Biacore A-100), biotinylated transferrin captured on Neutravidin, unpurified peptide injected for 60 s; remark: listed apart in the source
transferrin [16] = biological target: T1, transferrin; assay: as above; remark: listed apart in the source
Gal80 = biological target: T6, Gal80 (UniProt P04387 1-435, limits assumed); assay: SPR, gal80 immobilised on the chip; Kd from on and off rates
T6 construct: Cy3/Cy5 labelled on arrays, immobilised for SPR and ELISA
T6 sequence (looked up): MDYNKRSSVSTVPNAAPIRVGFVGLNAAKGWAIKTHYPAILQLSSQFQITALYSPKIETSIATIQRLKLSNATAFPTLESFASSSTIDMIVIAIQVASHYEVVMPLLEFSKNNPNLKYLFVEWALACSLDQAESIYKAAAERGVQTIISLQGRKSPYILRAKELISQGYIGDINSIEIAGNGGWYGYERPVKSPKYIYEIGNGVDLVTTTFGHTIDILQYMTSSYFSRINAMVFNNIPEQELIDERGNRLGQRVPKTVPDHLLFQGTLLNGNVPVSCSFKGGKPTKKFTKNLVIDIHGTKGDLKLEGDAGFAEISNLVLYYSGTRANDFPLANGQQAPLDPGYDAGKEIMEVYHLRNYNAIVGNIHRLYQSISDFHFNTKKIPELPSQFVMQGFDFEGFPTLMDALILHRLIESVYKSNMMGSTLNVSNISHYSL

transferrin [17] = biological target: T1, transferrin; assay: SPR (Biacore A-100), biotinylated transferrin captured on Neutravidin, unpurified peptide injected for 60 s; remark: listed apart in the source
transferrin [18] = biological target: T1, transferrin; assay: as above; remark: listed apart in the source
transferrin [19] = biological target: T1, transferrin; assay: as above; remark: listed apart in the source
transferrin [20] = biological target: T1, transferrin; assay: as above; remark: listed apart in the source
transferrin [21] = biological target: T1, transferrin; assay: SPR (Biacore T100), transferrin immobilised
From the text: (§4) Affinity plots were generated for each peptide and fit using a steady state affinity model.

transferrin [22] = biological target: T1, transferrin; assay: SPR (Biacore T100), transferrin immobilised (9758 RU), steady state affinity fit
From the text: as §4

transferrin [23] = biological target: T1, transferrin; assay: reference TRF26 lead peptide
transferrin [24] = biological target: T1, transferrin; assay: affinity characterisation of Example 29 (SPR; format for the purified peptides not stated)
transferrin [25] = biological target: T1, transferrin; assay: reference TRF26 lead peptide; remark: listed apart in the source
transferrin [26] = biological target: T1, transferrin; assay: affinity characterisation of Example 29 (SPR; format for the purified peptides not stated); remark: listed apart in the source
transferrin [27] = biological target: T1, transferrin; assay: SPR (Biacore A-100), biotinylated transferrin captured on Neutravidin, unpurified peptide injected for 60 s; remark: listed apart in the source

T2 sequence (P01375 77-233 limits assumed): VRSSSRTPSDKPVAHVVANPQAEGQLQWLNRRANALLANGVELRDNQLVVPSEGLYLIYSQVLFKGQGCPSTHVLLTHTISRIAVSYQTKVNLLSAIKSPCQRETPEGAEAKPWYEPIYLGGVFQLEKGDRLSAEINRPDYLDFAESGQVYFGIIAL
T1 sequence (P02787 20-698 limits assumed): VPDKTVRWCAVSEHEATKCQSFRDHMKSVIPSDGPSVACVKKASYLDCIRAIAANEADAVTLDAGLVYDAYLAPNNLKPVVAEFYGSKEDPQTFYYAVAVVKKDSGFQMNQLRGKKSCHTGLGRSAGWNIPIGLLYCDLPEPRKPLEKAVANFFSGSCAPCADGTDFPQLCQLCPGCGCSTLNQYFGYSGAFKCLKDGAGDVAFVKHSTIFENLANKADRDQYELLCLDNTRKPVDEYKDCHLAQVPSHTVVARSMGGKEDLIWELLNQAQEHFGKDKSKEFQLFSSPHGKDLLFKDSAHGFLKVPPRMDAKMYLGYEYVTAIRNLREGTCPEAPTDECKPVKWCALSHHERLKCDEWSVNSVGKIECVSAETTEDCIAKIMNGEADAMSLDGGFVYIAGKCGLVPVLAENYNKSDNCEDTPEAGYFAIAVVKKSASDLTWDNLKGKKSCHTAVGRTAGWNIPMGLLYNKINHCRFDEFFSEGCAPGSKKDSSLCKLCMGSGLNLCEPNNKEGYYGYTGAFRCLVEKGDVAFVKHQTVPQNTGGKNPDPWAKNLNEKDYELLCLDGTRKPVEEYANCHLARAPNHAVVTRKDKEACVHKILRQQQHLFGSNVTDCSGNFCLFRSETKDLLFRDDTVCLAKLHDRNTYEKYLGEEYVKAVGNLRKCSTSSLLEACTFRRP
T5 sequence (P25788 whole entry, the tested form may be a part): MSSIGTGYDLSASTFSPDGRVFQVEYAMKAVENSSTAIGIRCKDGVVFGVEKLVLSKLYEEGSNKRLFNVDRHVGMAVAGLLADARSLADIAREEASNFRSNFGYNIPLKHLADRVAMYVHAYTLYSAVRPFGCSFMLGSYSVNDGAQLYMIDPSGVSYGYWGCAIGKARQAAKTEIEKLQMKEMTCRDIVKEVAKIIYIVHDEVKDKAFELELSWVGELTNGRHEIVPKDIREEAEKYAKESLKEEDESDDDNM

DRDTPWETTNKTEEGIEGSC (Unpurified library peptide) [peptide of FIG. 60J]
binding result (transferrin [1]): binds

B1: TNF1-TNF4-KC-stBu (designed binder)
peptide 1: MKSIIPMSVAQHQGPIKGSG
peptide 2: FMNYPIKVPILVVPIGRGSG
modifications: not fully specified (C-terminus, bridges); also: chain 1 C-terminus on Lys α-amine, chain 2 C-terminus on same Lys ε-amine (branched dimer)
notes: Lysine linker followed by Cys(StBu); also called TNFa1-TNFa 4- KC(stBu)
binding result [2]: no binding

B2: peptide of FIG. 60B (peptide)
peptide: NIRMLLRFTVFPAQKLIGSC
notes: Unpurified library peptide (~50 to 70% pure)
binding result (transferrin [3]): binds

FERDPLMMPWSFLQSRQGSC [TNF1 lead peptide]
Binding ΔG [4]: -21.8 kJ/mol | Kd [4]: 160 µM | koff [5]: 1.6 s⁻¹

FERSYLKMPWKFLQSRQGSC [TNF1-opt (D4S+P5Y+M7K+S11K quadruple mutant)]
Kd [6]: 1.1 µM | Kd Fold-Change Relative to Lead [7]: 100 fold | Kd [8]: 0.7 µM | difference in observed binding energy relative to D4S+P5Y+S11K [9]: -3.93 kJ/mol | difference in observed binding energy relative to P5Y+M7K [9]: -7.24 kJ/mol | difference in observed binding energy relative to P5Y+S11K [9]: -6.95 kJ/mol | Kd [10]: 1.6 µM | Observed Binding ΔG [10]: -33.3 kJ/mol | koff [11]: 0.2 s⁻¹

B3: TNF1 D4S+P5Y+S11K triple mutant (peptide)
peptide: FERSYLMMPWKFLQSRQGSC
notes: also called D4S + P5Y + S1IK (so in the source)
Fold Change (Ka mutant / Ka TNF1) [12]: 23 fold | Kd Fold-Change Relative to Lead [7]: 23 fold | difference in observed binding energy relative to P5Y+S11K [9]: -3.01 kJ/mol | Kd [10]: 7 µM | Observed Binding ΔG [10]: -29.4 kJ/mol

FERYPLMMPWKFLQSRQGSC [TNF1 D4Y+S11K double mutant]
Kd [13]: 9.3 µM | Kd Fold-Change Relative to Lead [7]: 17 fold | Observed Binding ΔG [10]: -27.9 kJ/mol

B4: SYN21-22 (designed binder)
peptide 1: QYHHFMNLKRQGRAQAYGSG
peptide 2: HAYKGPGDMRRFNHSGMGSG
modifications: also: both chains joined by C-terminus to the amines of a branching Lys, Lys-Cys linker with biotinylated Cys thiol
notes: Lysine linker followed by cysteine; the thiol of the cysteine biotinylated for the protein array; also called anti-TRF synbody
binding result [14]: binds | binding result (GRP58): binds | binding result (PSMA3): binds

QENDQQSFGLGGMMGQAGSC (Unpurified library peptide) [peptide of FIG. 60K]
binding result (transferrin [15]): binds

WMDDIDAPQDEWWVFHHGSC (Unpurified library peptide) [peptide of FIG. 60C]
binding result (transferrin [16]): binds

B5: BP2 on dsDNA (peptide)
affinity element BP2: EGEWTEGKLSLRGSC
modifications: C-terminal Cys joined through SMCC to the DNA linker
notes: also called BP2 alone conjugated to the double-stranded DNA linker
Kd (Gal80): 0.982 µM

AMMRMDMAGLNKIVFHQGSC (Unpurified library peptide) [peptide of FIG. 60I]
binding result (transferrin [17]): binds

DNSRRSAKQRIFMHVDLGSC (Unpurified library peptide) [peptide of FIG. 60G]
binding result (transferrin [18]): binds

TEDNDYMVVSMVVTMEPGSC (Unpurified library peptide) [peptide of FIG. 60L]
binding result (transferrin [19]): binds

DFLWSKSGILSHASWNHGSC (Unpurified library peptide) [peptide of FIG. 60D]
binding result (transferrin [20]): binds

B6: TBPM023 (peptide)
peptide: AHKVVPQRQMRHAYSRYGSC
notes: Clone from mRNA display on a doped TRF26 library; also called TBPMO23
fold improvement in affinity relative to TRF26 (transferrin [21]): > 10 fold | Kd (transferrin [22]): 11.6 µM

B7: TRF26 P6Y+H12F double mutant (peptide)
peptide: AHKVVYQRQIRFAYNRYGSC
notes: also called P6Y + 1112F (so in the source)
Kd Fold-Change Relative to Lead (transferrin [23]): 190 fold | Kd (transferrin [24]): 0.5 µM

AHKVVPQRQIRFAYNRYGSC [TRF26 H12F point-mutant]
Kd Fold-Change Relative to Lead (transferrin [25]): 8.8 fold | Binding ΔG (transferrin [26]): -28.7 kJ/mol | Kd (transferrin [26]): 9.7 µM

AHKVVYQRQIRHAYNRYGSC [TRF26 P6Y point-mutant]
Kd Fold-Change Relative to Lead (transferrin [25]): 10 fold | Binding ΔG (transferrin [26]): -29 kJ/mol | Kd (transferrin [26]): 8.6 µM

KMRTITYYHLQAILKQRGSC (Unpurified library peptide) [peptide of FIG. 60F]
binding result (transferrin [27]): binds
